Data: patent US20100273710 (published 2010)
Like-named read-outs stand apart in the source and are kept apart here.

Experiments:
[1] = biological target: T1, NOP receptor (Homo sapiens, UniProt P41146); assay: competition, [3H]N/OFQ
[2] = biological target: T1, NOP receptor; assay: competition, [3H]N/OFQ; remark: listed apart in the source
[3] = biological target: MOP receptor (Homo sapiens, UniProt P35372); assay: competition, [3H]-diprenorphine
[4] = biological target: T2, DOP receptor (Homo sapiens, UniProt P41143); assay: competition, [3H]-diprenorphine
T2 chain: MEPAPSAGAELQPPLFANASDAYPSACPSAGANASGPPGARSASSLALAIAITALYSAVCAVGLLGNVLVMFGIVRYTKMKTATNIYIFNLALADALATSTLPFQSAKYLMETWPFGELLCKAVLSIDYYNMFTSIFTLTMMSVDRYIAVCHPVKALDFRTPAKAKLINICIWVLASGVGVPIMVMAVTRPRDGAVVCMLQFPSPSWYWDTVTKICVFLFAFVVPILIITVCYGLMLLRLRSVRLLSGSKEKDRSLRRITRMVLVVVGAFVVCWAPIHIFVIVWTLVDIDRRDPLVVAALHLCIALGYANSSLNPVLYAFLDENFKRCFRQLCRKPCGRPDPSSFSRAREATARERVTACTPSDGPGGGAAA

T1 sequence (P41146 whole entry): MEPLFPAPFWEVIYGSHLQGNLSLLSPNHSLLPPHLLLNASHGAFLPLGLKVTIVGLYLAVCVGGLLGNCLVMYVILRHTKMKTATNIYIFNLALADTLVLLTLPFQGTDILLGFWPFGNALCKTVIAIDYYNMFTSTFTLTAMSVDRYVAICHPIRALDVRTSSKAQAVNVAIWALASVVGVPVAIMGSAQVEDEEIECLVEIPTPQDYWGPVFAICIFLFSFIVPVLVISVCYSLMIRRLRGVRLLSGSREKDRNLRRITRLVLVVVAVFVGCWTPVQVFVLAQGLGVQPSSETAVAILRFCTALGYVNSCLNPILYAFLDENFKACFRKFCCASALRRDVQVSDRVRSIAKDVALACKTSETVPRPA
Chain of MOP receptor (P35372 whole entry): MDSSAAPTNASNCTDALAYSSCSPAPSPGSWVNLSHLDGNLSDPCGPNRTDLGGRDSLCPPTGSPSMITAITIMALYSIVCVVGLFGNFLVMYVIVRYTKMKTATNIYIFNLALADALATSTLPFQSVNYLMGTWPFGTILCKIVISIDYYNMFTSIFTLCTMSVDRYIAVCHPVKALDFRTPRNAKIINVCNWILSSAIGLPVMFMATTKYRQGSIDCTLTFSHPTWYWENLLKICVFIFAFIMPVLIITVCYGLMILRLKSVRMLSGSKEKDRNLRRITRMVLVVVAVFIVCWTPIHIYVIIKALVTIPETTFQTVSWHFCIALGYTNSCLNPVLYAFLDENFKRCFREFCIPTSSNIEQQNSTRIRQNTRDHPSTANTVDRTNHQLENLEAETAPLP

## XGGFTGXRKSARKRKNQ ([Nphe1,Aib7,Arg14,Lys15]N/OFQ-NH2; X1 = Nphe, X7 = Aib, C-terminal amide) [UFP-111]
[1]
  Ki: 0.178 nM
[2]
  Ki: 17.8 nM
[3]
  Ki: > 10000 nM
[4]
  Ki: > 10000 nM
